Measured values: paper PMC4258470 (Journal of molecular biology, 2014)
Where two headings read alike, the source gives them in different places. Where no end group is shown, it is not given here. [ ]: non-standard residue; d: D form. pS = N[C@@H](COP(=O)(O)O)C(=O)O

B3: TAZ2 domain of mouse CBP (residues 1764-1855) (domain or fragment, UniProt P45481 1764-1855, looked up)
chain: SPQESRRLSIQRCIQSLVHACQCRNANCSLPSCQKMKRVVQHTKGCKRKTNGGCPVCKQLIALCCYHAKHCQENKCPVPFCLNIKHKLRQQQ

Columns and labels:
[1] = molecular target: B3; test: fluorescence polarisation
[2] = molecular target: T1, H6GB1-E7(1-98), full length HPV16 E7 fused to His6-GB1, phosphorylated by CKII (HPV16, UniProt P03129 1-98); test: pull-down
T1 sequence: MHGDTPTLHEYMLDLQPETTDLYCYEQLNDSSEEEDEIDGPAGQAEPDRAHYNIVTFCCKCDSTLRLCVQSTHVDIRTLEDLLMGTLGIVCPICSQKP

[3] = molecular target: T2, H6GB1-E7(1-98), full length HPV16 E7 fused to His6-GB1, unphosphorylated (HPV16, UniProt P03129 1-98); test: pull-down
T2 sequence: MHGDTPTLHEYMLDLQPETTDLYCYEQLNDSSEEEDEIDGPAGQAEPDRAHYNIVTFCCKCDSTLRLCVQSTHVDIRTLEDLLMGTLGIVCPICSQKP

[4] = molecular target: T2, H6GB1-E7(1-98), full length HPV16 E7 …; test: pull-down; remark: listed apart in the source
[5] = molecular target: T3, E7(1-98), full length HPV16 E7, unphosphorylated, MBP removed (HPV16, UniProt P03129 1-98); test: NMR titration
T3 sequence: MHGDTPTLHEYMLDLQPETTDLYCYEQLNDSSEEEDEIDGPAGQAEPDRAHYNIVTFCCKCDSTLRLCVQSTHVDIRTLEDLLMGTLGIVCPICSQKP

[6] = molecular target: B3; test: fluorescence polarisation; remark: listed apart in the source
[7] = molecular target: B3; test: NMR titration
[8] = molecular target: TAZ1 domain of mouse CBP (residues 345-439) (mouse, UniProt P45481 345-439); test: NMR titration
Chain of TAZ1 domain of mouse CBP (residues 345-439) (P45481 345-439): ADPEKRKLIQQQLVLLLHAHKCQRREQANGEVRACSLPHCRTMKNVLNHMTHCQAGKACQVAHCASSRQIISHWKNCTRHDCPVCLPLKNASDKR

B1: ppE7(1-51) C24A,A50C-594, HPV16 E7(1-51) double mutant, phosphorylated and labelled with Alexa Fluor 594 (domain or fragment)
chain: MHGDTPTLHEYMLDLQPETTDLYAYEQLND[pS][pS]EEEDEIDGPAGQAEPDRC(Alexa Fluor 594)H
- Kd [1]: 28 ± 6 nM

B2: H6Rb-AB, His6-tagged central pocket of the retinoblastoma protein (domain or fragment)
chain: HTPVRTVMNTIQQLMMILNSASDQPSENLISYFNNCTVNPKESILKRVKDIGYIFKEKFAKAVGQGCVEIGSQRYKLGVRLYYRVMESMLKSEEERLSIQNFSKLLNDNIFHMSLLACALEVVMATYSRSTSQNLDSGTDLSFPWILNVLNLKAFDFYKVIESFIKAEGNLTREMIKHLERCEHRIMESLAWLSDSPLFDLIKQSKGSGSTSLSLFYKKVYRLAYLRLNTLCERLLSEHPELEHIIWTLFQHTLQNEYELMRDRHLDQIMMCSMYGICKVKNIDLKFKIIVTAYKDLPHAVQETFKRVLIKEEEYDSIIVFYNSVFMQRLKTNILQYAST
- binding result [2]: binds
- binding result [3]: binds

Binder: B3
- binding result [4]: binds
- binding result [5]: binds

B4: E7(1-51) from HPV16, unphosphorylated, tag removed (domain or fragment)
chain: MHGDTPTLHEYMLDLQPETTDLYCYEQLNDSSEEEDEIDGPAGQAEPDRAH
- Kd [6]: 22 ± 6 nM

B5: pp6b-E7(1-51), phosphorylated E7(1-51) from low risk HPV6b (domain or fragment)
chain: MHGRHVTLKDIVLDLQPPDPVGLHCYEQLVDSSEDEVDEVDGQDSQPLKQH
modifications: also: phosphorylated by CKII, positions not given here
- Kd [6]: 31 ± 3 nM

B6: 6b-E7(1-51), unphosphorylated E7(1-51) from low risk HPV6b (domain or fragment)
chain: MHGRHVTLKDIVLDLQPPDPVGLHCYEQLVDSSEDEVDEVDGQDSQPLKQH
- Kd [6]: 79 ± 10 nM

B7: ppE7(1-51), HPV16 E7(1-51) phosphorylated by casein kinase II at serines 31 and 32 (domain or fragment)
chain: MHGDTPTLHEYMLDLQPETTDLYCYEQLND[pS][pS]EEEDEIDGPAGQAEPDRAH
- Kd [6]: 7 ± 3 nM
- Kd of the primary binding site (Kd1, 2-site model) [7]: 4 ± 3 nM
- Kd of the secondary binding site (Kd2, 2-site model) [7]: 33000 ± 2000 nM
- Kd [8]: 7000 ± 300 nM
